The text below walks through data of US20260077004A1 (UNIVERSITY OF MASSACHUSETTS, published 2026).

This test deals with wild-type KCNH2 (human, UniProt Q12809 1-1159). Put plainly: cell-based or functional assay.

B1: truncated G628S KCNH2 (other)
chain: MPVRRGHVAPQNTFLDTIIRKFEGQSRKFIIANARVENCAVIYCNDGFCELCGYSRAEVMQRPCTCDFLHGPRTQRRAAAQIAQALLGAEERKVEIAFYRKDGSCFLCLVDVVPVKNEDGAVIMFILNFEVVMEKDMVGSPAHDTNHRGPPTSWLAPGRAKTFRLKLPALLALTARESSVRSGGAGGAGAPGAVVVDVDLTPAAPSSESLALDEVTAMDNHVAGLGPAEERRALVGPGSPPRSAPGQLPSPRAHSLNPDASGSSCSLARTRSRESCASVRRASSADDIEAMRAGVLPPPPRHASTGAMHPLRSGLLNSTSDSDLVRYRTISKIPQITLNFVDLKGDPFLASPTSDREIIAPKIKERTHNVTEKVTQVLSLGADVLPEYKLQAPRIHRWTILHYSPFKAVWDWLILLLVIYTAVFTPYSAAFLLKETEEGPPATECGYACQPLAVVDLIVDIMFIVDILINFRTTYVNANEEVVSHPGRIAVHYFKGWFLIDMVAAIPFDLLIFGSGSEELIGLLKTARLLRLVRVARKLDRYSEYGAAVLFLLMCTFALIAHWLACIWYAIGNMEQPHMDSRIGWLHNLGDQIGKPYNSSGLGGPSIKDKYVTALYFTFSSLTSVGFSNVSPNTNSEKIFSICVMLIGSLMYASIFGNVSAIIQRLYSGTARYHTQMLRVREFIRFHQIPNPLRQRLEEYFQHAWSYTNGIDMNAVLKGFPECLQADICLHLNRSLLQHCKPFRGATKGCLRALAMKFKTTHAPPGDTLVHAGDLLTALYFISRGSIEILRGDVVVAILGKNDIFGEPLNLYARPGKSNGDVRALTYCDLHKIHRDDLLEVLDMYPEFSDHFWSSLEITFNLRDTNMIPGSPGSTELEGGFSRQRKRKLSFRRRTDKDTEQPGEVSALGPGRAGAGPSSRG
B1: the “reduction in sustained current (IKr) relative to GFP control cells, CHO cells” value was 70% and the “reduction in tail current (IKr) relative to GFP control cells, CHO cells” value is 78%.

B2: full-length G628S KCNH2 (other)
chain: MPVRRGHVAPQNTFLDTIIRKFEGQSRKFIIANARVENCAVIYCNDGFCELCGYSRAEVMQRPCTCDFLHGPRTQRRAAAQIAQALLGAEERKVEIAFYRKDGSCFLCLVDVVPVKNEDGAVIMFILNFEVVMEKDMVGSPAHDTNHRGPPTSWLAPGRAKTFRLKLPALLALTARESSVRSGGAGGAGAPGAVVVDVDLTPAAPSSESLALDEVTAMDNHVAGLGPAEERRALVGPGSPPRSAPGQLPSPRAHSLNPDASGSSCSLARTRSRESCASVRRASSADDIEAMRAGVLPPPPRHASTGAMHPLRSGLLNSTSDSDLVRYRTISKIPQITLNFVDLKGDPFLASPTSDREIIAPKIKERTHNVTEKVTQVLSLGADVLPEYKLQAPRIHRWTILHYSPFKAVWDWLILLLVIYTAVFTPYSAAFLLKETEEGPPATECGYACQPLAVVDLIVDIMFIVDILINFRTTYVNANEEVVSHPGRIAVHYFKGWFLIDMVAAIPFDLLIFGSGSEELIGLLKTARLLRLVRVARKLDRYSEYGAAVLFLLMCTFALIAHWLACIWYAIGNMEQPHMDSRIGWLHNLGDQIGKPYNSSGLGGPSIKDKYVTALYFTFSSLTSVGFSNVSPNTNSEKIFSICVMLIGSLMYASIFGNVSAIIQRLYSGTARYHTQMLRVREFIRFHQIPNPLRQRLEEYFQHAWSYTNGIDMNAVLKGFPECLQADICLHLNRSLLQHCKPFRGATKGCLRALAMKFKTTHAPPGDTLVHAGDLLTALYFISRGSIEILRGDVVVAILGKNDIFGEPLNLYARPGKSNGDVRALTYCDLHKIHRDDLLEVLDMYPEFSDHFWSSLEITFNLRDTNMIPGSPGSTELEGGFSRQRKRKLSFRRRTDKDTEQPGEVSALGPGRAGAGPSSRGRPGGPWGESPSSGPSSPESSEDEGPGRSSSPLRLVPFSSPRPPGEPPGGEPLMEDCEKSSDTCNPLSGAFSGVSNIFSFWGDSRGRQYQELPRCPAPTPSLLNIPLSSPGRRPRGDVESRLDALQRQLNRLETRLSADMATVLQLLQRQMTLVPPAYSAVTTPGPGPTSTSPLLPVSPLPTLTLDSLSQVSQFMACEELPPGAPELPQEGPTRRLSLPGQLGALTSQPLHRHGSDPGS
For the molecule B2, the “reduction in sustained current (IKr) relative to GFP control cells, CHO cells” value worked out at 65% and the “reduction in tail current (IKr) relative to GFP control cells, CHO cells” value came out at 58%.
